Assay results: paper PMC2148115

Target: Tubulin (αβ-tubulin heterodimer) from pig brain (pig) (UniProt P02550)
Assay: AUC

MAP2C (from UniProt P15146-3 1-467) (natural protein)
percent of the protein in the 19.5 S species, molar ratio to tubulin 0.43:1: 21% | percent of the protein in the 28.5 S species, molar ratio to tubulin 0.43:1: 26%
